Reference: the supplement of paper PMC9170038

Test system: MS2 coat protein
Assay: apparent KD of MS2 coat protein; designed switch direction (-1 OFF switch, 1 ON switch): -1; higher = weaker reporter binding
Summary of the method: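 The buffer was Tris-HCl pH 7.5 with KCl, MgCl2, BSA, DTT, tRNA and Tween-20. In it, SNAP-549-labelled MS2 coat protein was titrated in doubling steps from 0.7 or 1.5 nM to 3 µM over chip-bound RNA switches transcribed by stalled E. coli RNA polymerase on Illumina chips. Apparent KD is the per-design median over clusters of curve fits to normalised fluorescence.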

[1] = Eterna round: R95, input ligand: FMN 200 uM
[2] = Eterna round: R95, input ligand: microRNA oligo, concentration not stated
[3] = Eterna round: R95, input ligand: none
[4] = input ligand: microRNA oligo, concentration not stated

Sequence | apparent KD of MS2 coat protein (input ligand: FMN 200 uM) [nM] | apparent KD of MS2 coat protein (input ligand: none) [nM] | apparent KD of MS2 coat protein [1] [nM] | apparent KD of MS2 coat protein [2] [nM] | apparent KD of MS2 coat protein [3] [nM] | apparent KD of MS2 coat protein [4] [nM]
AGUAUGUCAGGAUAUCUCGGGUAGCCCACAAGGACUACCGAAGAGAAGGGACAUGAGGAUCACCCAUGUACCAU [EX4 B.24] (Eterna round: R97, puzzle: Exclusion 4) | 19.9 | 21.4 |  |  |  | 
CGUCAGUGAGGAUAUGGUUUCGUGUACAUGAGGAUCACCCAUGUUUCUUGGGACUAAUUACUAGAAGGCACUGACG [JR_Ex5_Sub033] (Eterna round: R97, puzzle: Exclusion 5) | 21.2 | 14 |  |  |  | 
GUGCGUGGCUAGGAUAUUGAGGAAUUUAGUCAGCGAGAAGGAGCCACAUGAGGAUCACCCAUGUGGUGAAGCUC [salish99_ex6_r4_001] (Eterna round: R97, puzzle: Exclusion 6) | 70.2 | 17.9 |  |  |  | 
AUGAGACAUGAGGAUCACCCAUGUGAGGAUAUGUAUGGAUGUUGGAAAGAAUGAGAGAACAGAAGGCACGUAGA [JR_Exclu1_Sub063] (puzzle: Exclusion 1) |  |  | 93.1 | 104 | 149 | 
UUAUAUAAUGUGAGGAUAUGCUGGUCGAGAGAUCAGCAGAAGGCACAUGAGGAUCACCCAUGUAGUAAAUUUUA [Mat - Exclusion 4 - JL Mod - D14] (puzzle: Brourd's mod of Exclusion 4) |  |  |  | 19.8 |  | 
AGUAGAUCAGGAUAUACGUGAAAGGUCAAAGUGUCCAAUAUACAUGAGGAUCACCCAUGUAGAAGGGAUCUACA [Ex2 Design 116: Not so Super Stable 3] (Eterna round: R96, puzzle: Exclusion 2) | 168 | 27.4 |  |  |  | 22.1
UAACUACAUGUAGGAUAUGCGUGGCGAAGCUAUGCAGAAGGACAUGAGGAUCACCCAUGUUUUAGCGUCUGCGUACAGAUGCGU [JL ENG1 1.50] (Eterna round: R96, puzzle: Exclusion NG 1) | 34.8 | 19.1 |  |  |  | 13.1
AAUCCUCUGCAGGAUAUCACUGGAUGAACCAGCUGAGAAGGGCGCACAUGAGGAUCACCCAUGUUGUAAGUAGC [Eternabot (L1) Solution 80] (Eterna round: R97, puzzle: Exclusion 6) | 132 | 51.7 |  |  |  | 
CUGAACCCGGUAGGAUAUAUUGUGGGCGGGCGUGGAACGACAUGAGGAUCACCCAUGUGAUUGAGGUAGAAGGGCCGAGAGGUU [Excl-NG2-LRO17] (Eterna round: R96, puzzle: Exclusion NG 2) | 42.6 | 42.8 |  |  |  | 31
UACAUGAGGAUCACCCAUGUUUUGUCGUGUAUGGUAUUUAUCUAGGAUAUCAAUAUAUUUAUUUAUGAGAAGGAGAAUAUUAAU [JMF's solution 11] (Eterna round: R96, puzzle: Exclusion NG 3) |  |  |  |  |  | 28.5
CCCUCACAUGAGGAUCACCCAUGUCAGGAUAUUCAGGUCACGCAAAAGCGGUUCCAAAGGAGAAGGGACAUCAA [Cequusso] (puzzle: Exclusion 1) |  |  | 43.8 | 24.2 | 30.9 | 
AGGUAACAUGAGGAUCACCCAUGUCAGGAUAUCAGUAAGAUGAGGAUAGAAUAGAGUAUGAGAAGGGACUAUAU [Excluse me! 22 - Jieux - Exclusion 1] (puzzle: Exclusion 1) |  |  | 34 | 38.5 | 47.6 | 
ACAUGUAAUGUAGGAUAUUUUACACAUGAGGAUCACCCAUGUGACCAGAGGCUUUGCUAUGAGUAAAAGAAGGGUAUGUACAUG [Ex NG2 #59] (Eterna round: R96, puzzle: Exclusion NG 2) |  |  |  |  |  | 51.5
CUAGCAAUUGUAGGAUAUCGAUGUGUUUCACAUCGAGAAGGACAUGAGGAUCACCCAUGUGAAAGGAUCGUGAGAUCCAGCUAG [JL ENG1 3.75] (Eterna round: R96, puzzle: Exclusion NG 1) | 96.7 | 30.3 |  |  |  | 23.1
ACAUGAGGAUCACCCAUGUCCGGCUGGUCUGUUCCGGUUGUCGAGGAUAUAGUUCGGUGUUCGCGCUAGAAGGCGGGAGCUGGA [Aenatbe mod 53] (Eterna round: R96, puzzle: Exclusion NG 3) | 177 | 157 |  |  |  | 130
AUGAGGUUAGGAUAUACAUGAGGAUCACCCAUGUUGAAGGGUUAGGUAGGCGGAGCUGGUAGAAGGAACGGAGC [JR_Exclu3_Sub057] (Eterna round: R96, puzzle: Exclusion 3) | 44.3 | 55.3 |  |  |  | 31.9
UGUCCACAUUCCGAUACGGGACAUGAGGAUCACCCAUGUCCACAGGAUAUCGUCUUACGAGAGAUCGAGAAGGGUGGCGUGCGC [Eternabot solution 22] (Eterna round: R96, puzzle: Exclusion NG 3) | 13.1 | 14.1 |  |  |  | 9.72
CAGUACUGAGGAUAUACAUGAGGAUCACCCAUGUGUUCCAGCUAGGAAACUAGCAGAAGUAGAAGGCAGUACUG [salish99_ex3_r3_067] (puzzle: Exclusion 3) |  |  | 425 | 25.5 | 23.9 | 

Sequence | apparent KD of MS2 coat protein (input ligand: FMN 200 uM) [nM] | apparent KD of MS2 coat protein (input ligand: none) [nM] | apparent KD of MS2 coat protein [1] [nM] | apparent KD of MS2 coat protein [2] [nM] | apparent KD of MS2 coat protein [3] [nM] | apparent KD of MS2 coat protein [4] [nM]
GGGCGUGAAGGAUAUACAUGAGGAUCACCCAUGUGGGAGGAGAGUGGUGAGGAGGCUGGUAGAAGGUCAGGAUG [JR_Exclusion3_Sub007] (puzzle: Exclusion 3) |  |  |  | 42.6 |  | 
CGUACAAGCUUACUAUAGGACAUGAGGAUCACCCAUGUAAUUGACGUUGCAUACAAUCCGUGGAUCCCGGCUGCUCG [Eternabot (L1) Solution 15] (Eterna round: R97, puzzle: Sensor, turn-off variant 1) | 43 | 51.6 |  |  |  | 
GGCUAGUCAGGAUAUACGAACAUGUCAAAAGACGUGAAGGGACAUGAGGAUCACCCAUGUAGAAGGGACUAGCU [salish99_ex2_r3_003] (puzzle: Exclusion 2) |  |  |  | 27.9 |  | 
UAUUACCUAGGAUAUACAUGAGGAUCACCCAUGUCACGGGUCAACUUGUCCUACGCGUGUAGAAGGAGGGACCC [JL Ceriza mod 7] (puzzle: Exclusion 3) |  |  |  | 19.7 |  | 
GGUGGACAUGAGGAUCACCCAUGUGAGGAUAUCGGCUGGUACGUGUUGGCUGGCAUCUCGAGAAGGCACAUAGG [Exclusion 1 V60] (puzzle: Exclusion 1) |  |  |  | 102 |  | 
CCUCCACAUGAGGAUCACCCAUGUGAGGAUAUCCUGCGAGGAUCAAAAGAUCCUCGUGGGAGAAGGCACAUGAA [Omei Ex1 A9] (Eterna round: R97, puzzle: Exclusion 1) | 241 | 39.3 |  |  |  | 
GUUAACGCAGGAUAUUAGUACAUGUACAUGAGGAUCACCCAUGUUUAGUGGGUCUAGGAAUAAGAAGGGCGAUGAA [JR_Ex5_Sub007] (Eterna round: R97, puzzle: Exclusion 5) | 280 | 535 |  |  |  | 
GGCUUGUAAGGAUAUGCGAAGGGAAGGAGAGGGACAGAGAAGCAGAAGGUACAUGAGGAUCACCCAUGUAAGGG [AK-MS2ROC-r4-exclusion4-7] (Eterna round: R97, puzzle: Exclusion 4) | 247 | 94.9 |  |  |  | 
UACAUGAGGAUCACCCAUGUUUUGUCGUGUAUGGUAUUUAUCUAGGAUAUCAUGUUAUUUAUUUAUGAGAAGGAGAAUAUUAAU [JMF's solution 24] (Eterna round: R96, puzzle: Exclusion NG 3) | 32.6 | 32.5 |  |  |  | 29.1
GAUUAUGCGAGCUUUAGGGACAUGAGGAUCACCCAUGUUCGUCUUAUUGAUCUAGGUGCACUGACAUACCUAAAUCU [JMF 89] (puzzle: Sensor v3, turn-off variant 1) |  |  | 28.5 | 37.9 | 29.8 | 
UAUAUAUAGUAAGGAUAUGUAUAUGUUUUAUAAACAGAAGGUACUGACAUGAGGAUCACCCAUGUUUUAGUGUGGGCAUGUAGA [JMF's solution 54] (Eterna round: R96, puzzle: Exclusion NG 1) |  |  |  |  |  | 44.5
GAUCAACAUGAGGAUCACCCAUGUGAGGAUAUAGACCUAAGGCGCAAGCUAUGGGACUCUAGAAGGCGCGGAAU [Eternabot (L2) Solution 93] (Eterna round: R97, puzzle: Exclusion 1) | 40 | 36.6 |  |  |  | 
GAAAAACAUGAGGAUCACCCAUGUAAGGAUAUGCUGAAAAAACACUGGAAACAGUGCAGCAGAAGGUACAAAAG [Mat - Exclusion 1 - Eli mod - D100] (Eterna round: R96, puzzle: Exclusion 1) |  |  |  |  |  | 47.6
GCUUAACAUGAGGAUCACCCAUGUUAGGAUAUGCGAACUCGUAAGAUGCAGGGAGAUUGCAGAAGGAACGUGGC [EX1 C.15] (Eterna round: R97, puzzle: Exclusion 1) | 22 | 18.2 |  |  |  | 
ACAAGCUUUUGCUCGUCUUACAUGAGGAUCACCCAUGUCGGGAACAUGCAUACAUACAACAUAUAAACAGUAACAGA [high energy, high % A (36%)] (Eterna round: R97, puzzle: Sensor, turn-off variant 1) | 20.1 | 21.2 |  |  |  | 
AAUUAUUUAUGAGGAUAUUGUGGUGAAACACCACAAGAAGGCAUGAUACACAUGAGGAUCACCCAUGUGAGCCUGAUGCAUAUA [Ex NG1 #58] (Eterna round: R96, puzzle: Exclusion NG 1) |  |  |  |  |  | 13.5
CUUAGACAUGAGGAUCACCCAUGUGAGGAUAUGAUGCGAUCGUGCUGACAUGAUCGCAUCAGAAGGCACAUAUG [JL-ex1-01 Hyphema Mod2] (Eterna round: R96, puzzle: Exclusion 1) | 242 | 115 |  |  |  | 101
